How the values were obtained:
Assay in all cases: NMR titration; 1H-13C HSQC of selectively [13C]-methyl-Met labelled CaM or variant, Ca2+-bound form compared with the complex with skMLCKp; 20 mM phosphate, 100 mM KCl, 10 mM CaCl2, pH 7.0, 25°C, about 0.6 mM protein, 800 MHz
Conditions in all cases: both partners purified
[1] = target: CCMΔ5, chicken calmodulin lacking the last five residues (M144 to K148) (chicken, UniProt P62149 1-144)
[2] = target: CCMΔ4, chicken calmodulin lacking the last four residues (M145 to K148) (chicken, UniProt P62149 1-145)
[3] = target: intact chicken calmodulin (CCM0) (chicken, UniProt P62149 1-149)

binding result [1]: binds
binding result [2]: binds
binding result [3]: binds
Binder: KRRWKKNFIAVSAANRFKKISSSGAL

From PMC5036782 (Biophysics, 2011)
